Experiment [1] concerns the target T1, kinesin-binding protein (human, UniProt Q96EK5 1-621).
T1 construct: The 6xHis tag is thrombin-cleavable; also called KBP; KBP-full; source: E. coli Rosetta2, purified (IMAC, SEC)
T1 sequence (looked up): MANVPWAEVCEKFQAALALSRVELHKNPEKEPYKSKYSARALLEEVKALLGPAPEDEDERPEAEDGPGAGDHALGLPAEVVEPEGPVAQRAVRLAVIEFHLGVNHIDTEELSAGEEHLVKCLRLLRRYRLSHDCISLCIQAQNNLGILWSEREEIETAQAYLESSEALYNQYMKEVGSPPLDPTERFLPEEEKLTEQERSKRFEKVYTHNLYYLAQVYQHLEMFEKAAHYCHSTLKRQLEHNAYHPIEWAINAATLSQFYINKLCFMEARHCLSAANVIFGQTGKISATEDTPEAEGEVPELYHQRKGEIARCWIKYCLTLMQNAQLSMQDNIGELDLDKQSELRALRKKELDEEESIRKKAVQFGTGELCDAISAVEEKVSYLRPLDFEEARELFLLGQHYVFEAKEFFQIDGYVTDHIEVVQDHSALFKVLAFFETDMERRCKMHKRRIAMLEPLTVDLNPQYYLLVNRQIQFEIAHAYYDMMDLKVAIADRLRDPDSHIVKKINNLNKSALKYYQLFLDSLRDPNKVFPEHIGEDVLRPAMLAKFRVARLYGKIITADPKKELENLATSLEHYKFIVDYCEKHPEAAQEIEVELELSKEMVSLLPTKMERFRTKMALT
Description: pull-down; complex purified via IMAC using the 6xHis tag on the kinesin construct after incubation with a tenfold excess of KBP; SDS-PAGE of the purified complex. The note with it: both partners purified.

Experiment [2] deals with T1, kinesin-binding protein. Description: cryo-EM structure; rigid KBP-full–KIF15_MD6S subset of particles from GO-coated holey gold grids; 6.9 Å reconstruction. The note with it: both partners purified.

B1: human KIF1A motor domain and neck linker construct (domain or fragment, UniProt Q12756 1-362, looked up)
chain: MAGASVKVAVRVRPFNSREMSRDSKCIIQMSGSTTTIVNPKQPKETPKSFSFDYSYWSHTSPEDINYASQKQVYRDIGEEMLQHAFEGYNVCIFAYGQTGAGKSYTMMGKQEKDQQGIIPQLCEDLFSRINDTTNDNMSYSVEVSYMEIYCERVRDLLNPKNKGNLRVREHPLLGPYVEDLSKLAVTSYNDIQDLMDSGNKARTVAATNMNETSSRSHAVFNIIFTQKRHDAETNITTEKVSKISLVDLAGSERADSTGAKGTRLKEGANINKSLTTLGKVISALAEMDSGPNKNKKKKKTDFIPYRDSVLTWLLRENLGGNSRTAMVAALSPADINYDETLSTLRYADRAKQIRCNAVINE
notes: kinesin-3 KIF1A, human, motor domain and neck linker, residues 1-362; The HaloTag is TEV protease-cleavable; the printed size of the motor domain (about 40 kDa); source: E. coli BL21-Gold (DE3), purified (IMAC, SEC); not shown: His6, C-terminal, kept
As for B1, in the experiment with kinesin-binding protein [1], the binding result is “binds”.

B2: cysteine-light human KIF15 motor domain and neck linker construct (domain or fragment, UniProt Q9NS87 1-375, looked up)
chain: MAPGSKTELRSVTNGQSNQPSNEGDAIKVFVRIRPPAERSGSADGEQNLSLSVLSSTSLRLHSNPEPKTFTFDHVADVDTTQESVFATVAKSIVESCMSGYNGTIFAYGQTGSGKTFTMMGPSESDNFSHNLRGVIPRSFEYLFSLIDREKEKAGAGKSFLSKCSFIEIYNEQIYDLLDSASAGLYLREHIKKGVFVVGAVEQVVTSAAEAYQVLSGGWRNRRVASTSMNRESSRSHAVFTITIESMEKCNEIVNIRTSLLNLVDLAGSERQKDTHAEGMRLKEAGNINRSLSSLGQVITALVDVGNGKQRHVSYRDSKLTFLLRDSLGGNAKTAIIANVHPGSRSFGETLSTLNFAQRAKLIKNKAVVNEDTQC
notes: kinesin-12 KIF15, human, motor domain and neck linker, residues 1-375, six of eight cysteines mutated to serine and two cysteines introduced; also called KIF15_MD6S; source: pET-21a vector, expressed and purified as described previously (Rosenfeld et al., 2005); not shown: His6, C-terminal, kept
Consider B2, for which the binding result with kinesin-binding protein [2] is given as “binds”.

For the origin of these results see article PMC8025885, “Cryo-EM of kinesin-binding protein: challenges and opportunities from protein-surface interactions” (Acta Crystallographica. Section D, Structural Biology, 2021).
